Results taken from article PMC5264588, “ER residency of the ceramide phosphoethanolamine synthase SMSr relies on homotypic oligomerization mediated by its SAM domain” (Scientific Reports, 2017).
Numbering of substitutions follows the chain as printed. Names and notes keep the numbering of the source. Values joined by “and” are separate entries in the source; they are usually repeats but may differ in a detail not shown here. Equal entries are not always repeated.

B1: V5/His6-tagged SMSrΔSAM (domain or fragment, human, UniProt Q96LT4 79-415, looked up)
chain: HIDVLEEMGYNSDSPMGSMTPFISALQSTDWLCNGELSHDCDGPITDLNSDQYQYMNGKNKHSVRRLDPEYWKTILSCIYVFIVFGFTSFIMVIVHERVPDMQTYPPLPDIFLDSVPRIPWAFAMTEVCGMILCYIWLLVLLLHKHRSILLRRLCSLMGTVFLLRCFTMFVTSLSVPGQHLQCTGKIYGSVWEKLHRAFAIWSGFGMTLTGVHTCGDYMFSGHTVVLTMLNFFVTEYTPRSWNFLHTLSWVLNLFGIFFILAAHEHYSIDVFIAFYITTRLFLYYHTLANTRAYQQSRRARIWFPMFSFFECNVNGTVPNEYCWPFSKPAIMKRLIG
notes: SMSr (SAMD8), human, UniProt Q96LT4, without the first 78 N-terminal residues (SAM domain deleted); also called SMSrΔSAM-V5; SAM-domain truncation mutant; source: HeLa, transfected, in detergent extract; not shown: V5, C-terminal, kept; His6, C-terminal, kept
B2: V5/His6-tagged SMSr (enzyme, human, UniProt Q96LT4 1-415, looked up)
chain: MAGPNQLCIRRWTTKHVAVWLKDEGFFEYVDILCNKHRLDGITLLTLTEYDLRSPPLEIKVLGDIKRLMLSVRKLQKIHIDVLEEMGYNSDSPMGSMTPFISALQSTDWLCNGELSHDCDGPITDLNSDQYQYMNGKNKHSVRRLDPEYWKTILSCIYVFIVFGFTSFIMVIVHERVPDMQTYPPLPDIFLDSVPRIPWAFAMTEVCGMILCYIWLLVLLLHKHRSILLRRLCSLMGTVFLLRCFTMFVTSLSVPGQHLQCTGKIYGSVWEKLHRAFAIWSGFGMTLTGVHTCGDYMFSGHTVVLTMLNFFVTEYTPRSWNFLHTLSWVLNLFGIFFILAAHEHYSIDVFIAFYITTRLFLYYHTLANTRAYQQSRRARIWFPMFSFFECNVNGTVPNEYCWPFSKPAIMKRLIG
notes: SMSr (SAMD8), ceramide phosphoethanolamine synthase, human, UniProt Q96LT4; the cDNA was PCR amplified and cloned with a C-terminal V5/His6 tag; also called SMSr-V5; SAMD8; source: HeLa, transfected (pcDNA3.1/V5-His TOPO), in detergent extract; not shown: V5, C-terminal, kept; His6, C-terminal, kept
B3: HA-tagged SMSr^D348E (enzyme, human, UniProt Q96LT4 1-415, looked up)
chain: B2 chain with D348E
notes: SMSr (SAMD8), human, UniProt Q96LT4, with D348E; also called enzyme-dead SMSr; source: SMSr-/- HeLa, transfected, in detergent extract; not shown: HA, C-terminal, kept
B4: V5/His6-tagged SMSr expressed in yeast (enzyme, human, UniProt Q96LT4 1-415, looked up)
chain: B2 chain
notes: SMSr (SAMD8), human, UniProt Q96LT4; also called SMSr-V5; pYES2.1/SMSr-V5-His TOPO; source: Saccharomyces cerevisiae IAY11, transformed (pYES2.1/SMSr-V5-His TOPO), in lysate
B5: HA-tagged SMSr (enzyme, human, UniProt Q96LT4 1-415, looked up)
chain: B2 chain
notes: SMSr (SAMD8), ceramide phosphoethanolamine synthase, human, UniProt Q96LT4; also called SMSr-HA; full-length SMSr-HA; source: HeLa (wild-type or SMSr-/-), transfected, in detergent extract; not shown: HA, C-terminal, kept
B6: HA-tagged SMSr^L62E/G63D/K66E (SMSr^OD) (enzyme, human, UniProt Q96LT4 1-415, looked up)
chain: B2 chain with L62E, G63D, K66E
notes: SMSr (SAMD8), human, UniProt Q96LT4, with L62E, G63D and K66E; also called oligomerization-defective triple mutant; source: HeLa (wild-type or SMSr-/-), transfected, in detergent extract; not shown: HA, C-terminal, kept

Columns and labels:
[1] = molecular target: the molecule itself; assay: cross-linking; intact HeLa cells (wild-type or SMSr-/-) treated with DSP (0-50 μM, 15 min, RT), lysed with detergent and 10 mM NEM; anti-HA or anti-V5 immunoprecipitation or Ni-NTA, immunoblot against the same tag
[2] = molecular target: the molecule itself; assay: SDS-resistant oligomers on SDS-PAGE of affinity-purified protein; HeLa cells transfected with one V5(/His6)-tagged construct; anti-V5 immunoprecipitates or Ni-NTA eluates, non-reducing SDS-PAGE, anti-V5 immunoblot; no cross-linker; oligomers mostly lost with 10 mM NEM in lysis or 100 mM DTT
[3] = molecular target: the molecule itself; assay: cross-linking; yeast cells expressing V5/His6-tagged SMSr treated with DSP (0-50 μM, 15 min), lysed, anti-V5 immunoblot
[4] = molecular target: B2; assay: co-IP; detergent extracts of HeLa cells co-transfected with HA-tagged and V5/His6-tagged constructs; anti-V5 immunoprecipitation, immunoblot with anti-V5 and anti-HA; non-reducing SDS-PAGE; no NEM named; settings: partners not purified

Binder: B1
- stoichiometry N [1]: 2

Binder: B2
- stoichiometry N [2]: 3 and 6

Binder: B3
- stoichiometry N [1]: 6 and 3

Binder: B4
- stoichiometry N [3]: 3 and 6

Binder: B5
- stoichiometry N [4]: 3 and 6
- stoichiometry N [1]: 3 and 6

Binder: B6
- stoichiometry N [1]: 6 and 3 and 2
